Assay results: FireProtDB (doi:10.1016/0022-2836(92)90557-z)

B1: Ribonuclease, P00648 (parent)
chain: MMKMEGIALKKRLSWISVCLLVLVSAAGMLFSTAAKTETSSHKAHTEAQVINTFDGVADYLQTYHKLPDNYITKSEAQALGWVASKGNLADVAPGKSIGGDIFSNREGKLPGKSGRTWREADINYTSGFRNSDRILYSSDWLIYKTTDHYQTFTKIR

Variants of: B1
Conditions: Bacillus amyloliquefaciens; pH 6.3; 25 °C; Urea; Fluorescence; MES 1.00 M; NaCl 613 mM; reversible: yes; structure 1BNI; whole UniProt chain shown

| Variant | ddG of mutation (higher = less stable) [kcal/mol] | denaturant midpoint (higher = more stable) [M] |
| --- | --- | --- |
| MMKMEGIALKKRLSWISVCLLVLVSAAGMLFSTAAKTETSSHKAHTEAQVINTFDGVADYLQTYHKLPDNYITKSEAQALGWVASKGNLADVAPGKSIGGDIFSNREGKLPGKSGRTWREADINYTSGFRNSDRILYSSDWLIYKTTDHYQTFTKIA | 0.46 | 4.37 |
| MMKMEGIALKKRLSWISVCLLVLVSAAGMLFSTAAKTETSSHKAHTEAQVINTFDGVAAYLQTYHKLPDNYITKSEAQALGWVASKGNLADVAPGKSIGGDIFSNREGKLPGKSGRTWREADINYTSGFRNSDRILYSSDWLIYKTTDHYQTFTKIR | 0.34 | 4.42 |
| MMKMEGIALKKRLSWISVCLLVLVSAAGMLFSTAAKTETSSHKAHTEAQVINTFAGVADYLQTYHKLPDNYITKSEAQALGWVASKGNLADVAPGKSIGGDIFSNREGKLPGKSGRTWREADINYTSGFRNSDRILYSSDWLIYKTTDHYQTFTKIR | 0.99 | 4.12 |
| MMKMEGIALKKRLSWISVCLLVLVSAAGMLFSTAAKTETSSHKAHTEAQVINTFAGVAAYLQTYHKLPDNYITKSEAQALGWVASKGNLADVAPGKSIGGDIFSNREGKLPGKSGRTWREADINYTSGFRNSDRILYSSDWLIYKTTDHYQTFTKIR | 0.89 | 4.16 |
| MMKMEGIALKKRLSWISVCLLVLVSAAGMLFSTAAKTETSSHKAHTEAQVINTFAGVAAYLQTYHKLPDNYITKSEAQALGWVASKGNLADVAPGKSIGGDIFSNREGKLPGKSGRTWREADINYTSGFRNSDRILYSSDWLIYKTTDHYQTFTKIA | -0.11 | 4.63 |
| MMKMEGIALKKRLSWISVCLLVLVSAAGMLFSTAAKTETSSHKAHTEAQVINTFAGVADYLQTYHKLPDNYITKSEAQALGWVASKGNLADVAPGKSIGGDIFSNREGKLPGKSGRTWREADINYTSGFRNSDRILYSSDWLIYKTTDHYQTFTKIA | 0.47 | 4.36 |
